The text below walks through data of paper PMC9430884.

Assay [1] has as its target CckA_(L391F) (two-hybrid fusion) (Rhodobacter sphaeroides). Particulars: scale: times higher concentration of Osp than for wild-type CckA.
The target in assay [2] is Gal4BD-CckAΔTM (Rhodobacter sphaeroides).

For the substance Gal4AD-Osp (natural protein), the inhibition of CckA L391F autophosphorylation with [γ-32P]ATP, purified proteins (2.5 μM His6-CckA L391F cytoplasmic domain, Osp-His6 0 to 10 μM, 30 min), against wild-type CckA in assay [1] stood at 4. Also, the inhibition of CckA autophosphorylation with [γ-32P]ATP, purified proteins (2.5 μM His6-CckA cytoplasmic domain, Osp-His6 0 to 10 μM, 30 min) in assay [2] turned out to be 50%.
